Results on 24 sequences are retold here after the DeepSol protein solubility set.

A short description of the data set: soluble on expression in E. coli; label from the status in PepcDB or PDB records.
For “MEEVTIKANLIFANGSTQTAEFQGTFEQATSEAYAYADTLKQDNGEWTVDVADQGYTLNIQFAG”, the “soluble on expression in E. coli” value was “soluble”.

On to “MEFIGDTRIVIINPLGAKKICRLTFEQIKVIYQEVKTHFENYRIIFTGLPQDLLTIPILEIETLPFDEFIYTVALTKYSDFVISVDTALVHIAAAYHKPTLAFYPNSRTPEYPSHLIWSPNHHKSIQIVSPTYTVKDIDTETLTNSVKRLEHHHHHH”, for which the “soluble on expression in E. coli” value was “not soluble”.

For “MEFKVTLTTEEIVRGLKHYRRIAKQDVLRAPETPNPEVFRRHAEARREVYAKLAEVAEREGPEAAVAYALELYRSLPFVTGTPEDQYPEIKGQENALENFFLMIGLDPKVRREARKARKPLQ”, the “soluble on expression in E. coli” value is given as “soluble”.

On to “MEFTLLGWPEDGHRLRLDYKQFAYAGKFVMTSTGKAVIGDDGVVAAAAFDADRTDPDTLCVRYITVRQDRQGDRLGARLLRFVRERATERGFEHVSIGVNNPFSYQAAYRAGFCFSGAESGMAELDLVWPGDRSTERYQAGLDLFRERDLSPDEESFLAAKADADPPTVLNEWAEQPSARTD”, for which the “soluble on expression in E. coli” value is on record as “not soluble”.

As to “MEFVKGDQVEVCSKEDGFLGSYFGATVVSKTPEGSYYKIKYKNLVSDTDQSKRLVEVISADELRPMPPKSLHVLIRCGDKVDAFDKDGWWVGEVTAVRRNIYSVYFSTTDEELEYPLYSLRKHHEWVNGSWVRQ”, the “soluble on expression in E. coli” value was “soluble”.

As to “MEGDVLSGFGDRHNMDGKLLQSFQKSFVDVQDILDQNRLLINEINQNHESKQPDNLGRNVGLIKELNNNIRRVASLYGDLSHSFARSVDASSEGESSGTLKSDGKANQKRFRSGDGSLVPATDEEMLEVKNLLEKNEQDMPVLPDPIQTEEYIPDEGSPSQFLQLENFEGKTYCIHAKTDRISLGLHDKGIYWVTCNVGAINFTPPLKLLQSKEELMNGSQMLFVLPDTKFQISTELSGNVELVPSKVLLQEPILFSSNGCSINQSTDVLNATASPKEPALSTAASKPDFSRVPGEISLANLSIKELQETFRATFGRETTSKDKRWLKRRIKMGLINSCVVPTTTLTINDSKLIGGDQDAIDAFSKGTVDEETATESIDTPASPDGIKGHSNDFGHSPVETFVDHYSGNEDFEGEDGSAKRVRKPTRRYIEETNEKQQIDGSMIPSKDPSSIQAVSSEGRVVVTRMVSLAGSRIQVPYVSHVRRSRPRENIMALGEFRSKSWEVKAAPEEGNLNLSPPQLSNDVNRVPGVKSASRCVQKESDKDHLKPIFTDVDQEMMEPELLDSSGDSSDDNFVDAPITQSASGRKLHRAWTISEVEKLVEGVSKYGVGKWTEIKKLSFSPYTHRTTVDLKDKWRNLQKASSSNRMEGGLKKHGSMAIPTHIMLQVRELAQKQSPISRVVSKARVVKRSRSRNGFL”, the “soluble on expression in E. coli” value is “soluble”.

For the sequence “MEGQSGRCKIVVVGDAECGKTALLQVFAKDAYPGSYVPTVFENYTASFEIDKRRIELNMWDTSGSSYYDNVRPLAYPDSDAVLICFDISRPETLDSVLKKWQGETQEFCPNAKVVLVGCKLDMRTDLATLRELSKQRLIPVTHEQGTVLAKQVGAVSYVECSSRSSERSVRDVFHVATVASLGRGHRQLRRTDSRRGMQRSAQLSGRPDRGNEGEIHKDRAKSCNLM”, the “soluble on expression in E. coli” value is listed as “soluble”.

On to “MEHICGTSRIAGFRFSLYPMTDDFISVIKSALKKTDTSKVWTKTDHISTVLRGSIDHVFDAAKAIYLHAANSEQHIVMNGTFSIGCPGDTQGDTYLSKGDKRVNEDAVRGLKAEAPCQFALYPMNEPDYMGLIMEAVDIAKAQGTFVQGVHYASELDGDAHDVFSTLEAVFRMAEQQTNHITMTVNLSANSPSRKNRKQG”, for which the “soluble on expression in E. coli” value is given as “soluble”.

As to “MEHPEGEDPTLLPPALAARALGVSPATLRRYAALWERLVGPLPRDPRGGRLWPKEALARLRAAREAHLREGLPLEEALARVQGDFPALALPSEGEALALLRALAERLERVEGELRALREENARLREALKALEPPRRRPWWRFWGH”, the “soluble on expression in E. coli” value is on record as “soluble”.

Consider “MEIFPAIDLKEGRCVRLYQGEFSKETVMNEDPVAQAIIFEKFGAKRLHIVDLDGAVAGESLNLSVIERICKAVRIPVQVGGGIRSLVAVEKLFSVGVDKVILGTAALYDKTFLEEAVLLYKEKIIVGIDAKNGFVATRGWLDVSEISYIDLAKQMEKIGVQTIVFTDISKDGTLAGPNIEQLELLQKSVAIRLIASGGVASIQDVKKLNDMNIYGVIIGKALYEKTIDLEEVVEVTKLC”, for which the “soluble on expression in E. coli” value was “not soluble”.

As to “MEIGTVTSQEEKLAYEKSIEMAGNYANQFDAQMEANQAIARTLACTMAEYGSQDREEAMSIIKRILNENPQLIGVYLGYEPDAFDGRDKNYINAPGHDSTGRFVPYCNKINGPVIIEPLVHYDSSDYYQLPKTTGKDTLTEPYFYEGIFMVSYDSPIFKNGEFAGIAGVDVPLEYVDDVASSIRTFDTGYAFMVSNTGIFLSHPTQKNWIGEKSLSDFDVEEIKNAASDIREGIGGHVEIKDPITGKTVIMFYEPVKTGDFSFVLVVPKEEMLAGVKDLRDRLLEHHHHHH”, the “soluble on expression in E. coli” value was “soluble”.

In the case of “MEIKEFSACNLESLRKLYLDSRRDSFPWLKADSFRIEDFDRDSQGERIWLSEVLGNVVGFISIWEPDNFIHHLYVATEYQGQGVGSMLLNGAKMKYGNLSLKCMVQNQKALNFYSSQGFEIVSQVDDELGGYYYMSFSAQT”, the “soluble on expression in E. coli” value is reported as “not soluble”.

In the case of “MEIKGESMQKSKFRRICVFCGSSQGKKSSYQDAAVDLGNELVSRNIDLVYGGGSIGLMGLVSQAVHDGGRHVIGIIPKTLMPRELTGETVGEVRAVADMHQRKAEMAKHSDAFIALPGGYGTLEELLEVITWAQLGIHDKPVGLLNVDGYYNSLLSFIDKAVEEGFISPTAREIIVSAPTAKELVKKLEEYAPCHERVATKLCWEMERIGYSSEE”, the “soluble on expression in E. coli” value is on record as “soluble”.

In the case of “MEITPKRYWRRWRGYEKLDGSSETTSGRRKGKRVKMDPTRKKRFWRIKIVPKLRILKTASPKKFLVWLRDSYVKMMMRLANSRVVGSSGYGGSGFGSGQMKEYDEKMLVEIYKSILMVQAQGNLVHRDTPNNNLKLPSEPAVVSVVSSVVTC”, the “soluble on expression in E. coli” value is “not soluble”.

In the case of “MEKETLFIAFSTQKGGAGKTTLTVLVASYLHYVKGMNVAVVDCDYPQHSIAEMRKRDLKTVMEDEHYKLMAYRQLQRIRKKAYPVAESTAEDAVTKADELLEKMPETDIVFFDLPGTVNSTGVLNTLVNMDYVFSPIAADRVVMESTLRFASRLNDTLIATGKTNIKGLYLLWNMVDGREKSELYKVYEQVIGELGLKVLKTFLPDSKRFRRELTGGHRALFRSTLFPADGTLVKGSNLKEITEELLSIIRK”, the “soluble on expression in E. coli” value is listed as “not soluble”.

Consider “MEKIIVRGGKRLNGTVRVEGAKNAVLPIIAAALLASDGKNVLSEVPVLSDVYTINEVLRHLNAEVVFENNQVTIDASKELNIEAPFEYVRKMRASVQVMGPLLARNGRARIALPGGCAIGSRPIDQHLKGFEAMGAKVQVGNGFVEAYVEGELKGAKIYLDFPSVGATENIMSAATLAKGTTILENAAKEPEIVDLANFLNAMGAKVRGAGTGTIRIEGVDKLYGANHSIIPDRIEAGTFMVAAAITGGDILIENAVPEHLRSITAKMEEMGVKIIEENEGVRVIGPDKLKAVDIKTMPHPGFPTDMQSQMMALLLQADGTSMITETVFENRFMHVEEFRRMNADIKIEGRSVIMNGPNSLQGAEVGATDLRAAAALILAGLVSEGYTRVTELKHLDRGYVDFHKKLAALGATIERVNEKVEEVKEQEVSDLHA”, for which the “soluble on expression in E. coli” value is “not soluble”.

Regarding “MEKIKNTCKIWEYIYTISRDRLYQKIPKEEFLRLSTSDKEYLEAIKNLNNPKISELARDMGYTKTAVTTMVQKLEKNGYLKKIKSKEDKREINVELTDKGRYIFELKEEVYEYTIKRIKEVLTPQELGAFKAILEKIAKEFDQELGKIYEKNENIDKSDGPPII”, the “soluble on expression in E. coli” value is listed as “not soluble”.

As to “MEKILIFGHQNPDTDTICSAIAYADLKNKLGFNAEPVRLGQVNGETQYALDYFKQESPRLVETAANEVNGVILVDHNERQQSIKDIEEVQVLEVIDHHRIANFETAEPLYYRAEPVGCTATILNKMYKENNVKIEKEIAGLMLSAIISDSLLFKSPTCTDQDVAAAKELAEIAGVDAEEYGLNMLKAGADLSKKTVEELISLDAKEFTLGSKKVEIAQVNTVDIEDVKKRQAELEAVISKVVAEKNLDLFLLVITDILENDSLALAIGNEAAKVEKAFNVTLENNTALLKGVVSRKKQVVPVLTDAMAE”, the “soluble on expression in E. coli” value is given as “soluble”.

On to “MEKKIGKLSIRVLLNTHRRNDCEIYPLIIRVVYHRRKSEYSLGWKIHTSNFSADRERVVYSSTGNLKRKDLGLINDAISQERERLLKIFAFLQQNMPGFSLSQLMDKYRMERNLRYVDAFIVREIERLRQEGRSGTAGLYLSGLYSLRRFLRGQKITFRELTYCFLTDYIHFLRMRGISENTVNMYIRNLRAVYNKAQKQGINMGCESPFRELKLQTQETAKRALCKHDIARIVSVDLSSEPLLDRARDLFMFSFYARGMPFVDIVFLKHDSIINGIIYYERNKTGQRMQVRVIPPLAALIEKYRSSYPYVLPYITSFSDRTSYMQYRYALGNVNRLLKRLGRRLHLPLVLTTYVARHSWATIAKEEGFSIASISEGLGHTSEATTQIYLQSFNSEVIDKINEQVVASIGRHI”, for which the “soluble on expression in E. coli” value is on record as “not soluble”.

“MEKLIAIQQNTIKQETVQTMSSREIAELCGKRHGHVMRDIRKLFSELKIDLSNFAGLYKDSTGRTLPCYHLPKREALIVILGYNTVLRAKIIDYWKKLEEQAANPQIDFSSPEIRAAIMMHLKNKIKQTA”: the “soluble on expression in E. coli” value is reported as “soluble”.

Take “MEKLRVGIVFGGKSAEHEVSLQSAKNIVDAIDKSRFDVVLLGIDKQGQWHVSDASNYLLNADDPAHIALRPSATSLAQVPGKHEHQLIDAQNGQPLPTVDVIFPIVHGTLGEDGSLQGMLRVANLPFVGSDVLASAACMDKDVTKRLLRDAGLNIAPFITLTRANRHNISFAEVESKLGLPLFVKPANQGSSVGVSKVTSEEQYAIAVDLAFEFDHKVIVEQGIKGREIECAVLGNDNPQASTCGEIVLTSDFYAYDTKYIDEDGAKVVVPAAIAPEINDKIRAIAVQAYQTLGCAGMARVDVFLTPENEVVINEINTLPGFTNISMYPKLWQASGLGYTDLITRLIELALERHAADNALKTTM”: the “soluble on expression in E. coli” value was “soluble”.

For “MEKLYDVIVVGAGTSGMMAAISAAEQGARVLLIEKNKKAGKKLLMTGGGRCNVTNNRPVDDLIAHIPGNGKFLYSTFAQWNNFDIMNFFESQGVHLKEEDHGRMFPVTNKSKTIIEALLNRLKELDVTLLFSTRVEKLIHKEHKIYGIRTEFEEFHAPAIILTTGGRTYPSTGSTGDGYKIVKRVGHTVTPLYATESPLISDEPYIQEKTLQGLSLQDITLRVLNKKGRVLTEHTMDLLFTHFGISGPAALRCSSFVNKELEKTGEPVTLSLDCFPTQTKQELIHILTEKSKATKKNLVNAWHGILPERLLVFFLERLEMDHLTGQQASQKQIQDFVQLCKEFKLSINKTFPIEKSFVTGGGVSLKEIYPKTLESKIIDGLYFAGELLDVNGYTGGFNITAAFATGHVAGMNAGQRA”, the “soluble on expression in E. coli” value is given as “soluble”.

As to “MEKNMKIELITIKEFIEQAECYFRNYMDGLRRNAPDDFYYFLNNKYNMNDIMESIIKKTRYHFYDDTEEGKRNRIYGEVNHCKVKQHLRQLWIVYKCVYR”, the “soluble on expression in E. coli” value is listed as “soluble”.

Regarding “MEKYAVILGKNPELSLVELKAFSRRFRLGVRILEERIYGSNKSFAIIQAKEDIEKYFRWIGGSLKLVRLIGEGVDSIRDLEYSKLFTVSVYGRRVDWKEWRRFGSMIKEVFKEKDSAKFFKPANTYAMPSELILKGFPKVKDVVLLFVDDKVLVGETVRVTDPFELKKLDVERPVVRPTISIPPRLARVMVNLSEIRRGNVLDPFCGTGTIVMELTLQGLNAYGTDIEEGRVRDAKKNIDWLRKEFRIRKYPVLKVCDVRRLRKCFPRTRFDAIITEPYMGKPLKYKPSRGEAIKIAKGLDRLYYQAFESFADVLKRGSIIVFVFPAFSLSNGEVYRRNRPWLEELGFKVLYRVSEGEEEHRIVRDIHVIKFIR”, the “soluble on expression in E. coli” value was “soluble”.
